In patent US20250011418A1 (ZIELBIO, published 2025):
Substitutions are numbered along the chain they refer to. Like-named read-outs stand apart in the source and are kept apart here.

T1: Reb-His (Reb, a sub-fragment of Sec8, tagged with a polyhistidine (His) tag)
T1 construct: also called Reb-His peptide
T1 chain: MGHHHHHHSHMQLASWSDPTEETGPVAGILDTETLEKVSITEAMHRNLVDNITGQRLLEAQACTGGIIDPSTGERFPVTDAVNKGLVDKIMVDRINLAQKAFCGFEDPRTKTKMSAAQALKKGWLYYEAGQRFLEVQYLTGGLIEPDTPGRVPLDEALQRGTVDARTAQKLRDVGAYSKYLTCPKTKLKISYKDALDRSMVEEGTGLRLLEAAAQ

T2: Sec8-His (section 8 (Sec8), an antigenic region of CSP-1, tagged with a polyhistidine (His) tag)
T2 construct: also called Sec8-His antigen
T2 chain: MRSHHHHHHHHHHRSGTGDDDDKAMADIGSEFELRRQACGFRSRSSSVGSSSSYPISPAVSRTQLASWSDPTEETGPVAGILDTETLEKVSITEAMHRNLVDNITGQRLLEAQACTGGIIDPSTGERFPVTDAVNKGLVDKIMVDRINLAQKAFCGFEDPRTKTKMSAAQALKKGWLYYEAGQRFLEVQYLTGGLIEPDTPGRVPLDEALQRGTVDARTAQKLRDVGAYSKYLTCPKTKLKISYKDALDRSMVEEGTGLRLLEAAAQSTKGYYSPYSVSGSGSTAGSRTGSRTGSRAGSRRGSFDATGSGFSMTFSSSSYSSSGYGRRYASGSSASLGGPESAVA

B1: murine anti-CSP-1 antibody 1D7 (hybridoma clone) (antibody, V domains shown)
VH: EVQLVESGGDLVKPGGSLKLSCAASGFTFSRYGMSWVRQTPDKRLEWVATISIGGTYTYYPDSMKGRFTISRDNAKNTLYLQMSSLKSEDTAMYYCARRGYGNYSYYGMDYWGQGTSVTVSS
VL: DIVMTQAAFSNPVTLGTSASISCRSSKSLLHSNGITYLYWYLQKPGQSPQLLIYQMSNLASGVPDRFSSSGSGTDFTLRISRVEAEDVGVYYCAQNLELPLTFGAGTKLELK
notes: Murine antibody
B2: murine anti-CSP-1 antibody 1H11 (antibody, V domains shown)
VH: QIQLVQSGPELKKPGETVKISCKASGYTFTDYSMHWVKQAPGKGLKWMGWINTETGEPTYADDFKGRFAFSLETSASTAYLQINNLKNEDTATYFCAPGGFAYWGQGTLVTVSA
VL: DIVMTQAAPSVPVTPGESVSISCRSSKSLLHSNGNTYLYWFLQRPGQSPQLLIYRMSNLASGVPDRFSGSGSGTAFTLRISRVEAEDVGVYYCMQHLEYPLTFGAGTKLELKR
notes: Murine antibody; also called 1H11B5
B3: antibody-drug conjugate comprising the murine anti-CSP-1 antibody 1H11 and the chemotherapeutic drug SN38 (antibody, V domains shown)
VH: B2 VH
VL: B2 VL
modifications: SN38 (small-molecule drug) is conjugated to the antibody. The linker, the conjugation residues, the chain that carries it and the drug-to-antibody ratio are not stated, and the letters cannot carry it.
notes: also called 1H11-SN38 conjugate
B4: humanized anti-CSP-1 antibody, Antibody Number 34 (Table 1) (antibody, human IgG1, V domains shown)
VH: B1 VH
VL: B1 VL with A7S, F9L, N11L, T17Q, L59R, R79K, A105Q, L111I
notes: also called Antibody 34
B5: humanized anti-CSP-1 antibody, Antibody Number 30 (Table 1) (antibody, human IgG1, V domains shown)
VH: EVQLVESGGEVVKPGASLKLSCKASGFTFSRYGMSWVRQAPGQRLEWVATISIGGTYTYYPDSMKGRFTITRDNSTNTLYLEMSSLRSEDTAMYYCARRGYGNYSYYGMDYWGQGTLVTVSS
VL: B1 VL
notes: also called Antibody 30
B6: humanized anti-CSP-1 antibody, Antibody Number 35 (Table 1) (antibody, human IgG1, V domains shown)
VH: B5 VH
VL: B1 VL with A7S, F9L, T17Q, L59R, R79K, A105Q, L111I
notes: also called Antibody 35
B7: humanized anti-CSP-1 antibody, Antibody Number 36 (Table 1) (antibody, human IgG1, V domains shown)
VH: B1 VH with D10G, K13Q, K19R, T40A, D42G, A75S, S84N, K87R, S88A, S117L
VL: B1 VL with A7S, F9L, T17Q, L59R, R79K, A105Q, L111I
notes: also called Antibody 36
B8: humanized anti-CSP-1 antibody, Antibody Number 37 (Table 1) (antibody, human IgG1, V domains shown)
VH: B1 VH with D10G, K13Q, K19R, T40A, D42G, A75S, S84N, K87R, S88A, S117L
VL: B1 VL with A7S, F9L, N11L, T17Q, L59R, R79K, A105Q, L111I
notes: also called Antibody 37
B9: humanized anti-CSP-1 antibody, Antibody Number 38 (Table 1) (antibody, human IgG1, V domains shown)
VH: EVQLVESGGGLVQPGGSLRLSCAASGFTFSRYGMSWVRQAPGKGLEWVATISIGGTYTYYPDSMKGRFTISRDNSKNTLYLQMNSLRAEDTAVYYCARRGYGNYSYYGMDYWGQGTLVTVSS
VL: B1 VL with A7S, F9L, T17Q, L59R, R79K, A105Q, L111I
notes: also called Antibody 38
B10: humanized anti-CSP-1 antibody, Antibody Number 39 (Table 1) (antibody, human IgG1, V domains shown)
VH: B9 VH
VL: B1 VL with A7S, F9L, N11L, T17Q, L59R, R79K, A105Q, L111I
notes: also called Antibody 39
B11: humanized anti-CSP-1 antibody, Antibody Number 42 (Table 1) (antibody, human IgG1, V domains shown)
VH: QIQLVQSGSELKKPGASVKVSCKASGYTFTDYSMHWVRQAPGQGLEWMGWINTETGEPTYAQGFTGRFVFSLDTSVSTAYLQISSLKAEDTAVYFCAPGGFAYWGQGTLVTVSS
VL: DIVMTQSPLSLPVTPGEPASISCRSSKSLLHSNGNTYLYWFLQKPGQSPQLLIYRMSNLASGVPDRFSGSGSGTDFTLKISRVEAEDVGVYYCMQHLEYPLTFGAGTKLELK
notes: also called Antibody 42
B12: humanized anti-CSP-1 antibody, Antibody Number 40 (Table 1) (antibody, human IgG1, V domains shown)
VH: B11 VH with I2V, H35N, F95Y
VL: B11 VL with L59R, A105Q, L111I
notes: also called Antibody 40
B13: humanized anti-CSP-1 antibody, Antibody Number 41 (Table 1) (antibody, human IgG1, V domains shown)
VH: B11 VH
VL: B11 VL with L59R, A105Q, L111I
notes: also called Antibody 41
B14: humanized anti-CSP-1 antibody, Antibody Number 48 (Table 1) (antibody, human IgG1, V domains shown)
VH: B11 VH
VL: B11 VL with M56L
notes: also called Antibody 48
B15: humanized anti-CSP-1 antibody, Antibody Number 43 (Table 1) (antibody, human IgG1, V domains shown)
VH: B9 VH with Q13K, S35N, A49S, T50S, P61A, M64V, S75A, T78S
VL: B11 VL with N35I, F41Y, R55Q, L59R, M94A, H96N, Y99L, A105Q, L111I
notes: also called Antibody 43
B16: humanized anti-CSP-1 antibody, Antibody Number 44 (Table 1) (antibody, human IgG1, V domains shown)
VH: B9 VH with Q13K, S35N, A49S, T50S, P61A, M64V, S75A, T78S
VL: B11 VL with N35I, F41Y, R55Q, M94A, H96N, Y99L, A105Q, L111I
notes: also called Antibody 44
B17: humanized anti-CSP-1 antibody, Antibody Number 45 (Table 1) (antibody, human IgG1, V domains shown)
VH: B9 VH with Q13K, S35N, A49S, T50S, P61A, M64V, S75A, T78S
VL: B11 VL with N35I, F41Y, R55Q, G69S, M94A, H96N, Y99L, A105Q, L111I
notes: also called Antibody 45
B18: humanized anti-CSP-1 antibody, Antibody Number 46 (Table 1) (antibody, human IgG1, V domains shown)
VH: B9 VH with Q13K, A49S, T50S, P61A, M64V, S75A, T78S
VL: B11 VL with N35I, F41Y, R55Q, G69S, M94A, H96N, Y99L, A105Q, L111I
notes: also called Antibody 46
B19: humanized anti-CSP-1 antibody, Antibody Number 49 (Table 1) (antibody, human IgG1, V domains shown)
VH: B9 VH with G44R, V93M, N103Q
VL: B1 VL with A7S, F9L, T17Q, L59R, R79K, A105Q, L111I
notes: also called Antibody 49
B20: humanized anti-CSP-1 antibody, Antibody Number 50 (Table 1) (antibody, human IgG1, V domains shown)
VH: B9 VH with G44R, V93M, N103Q, M109L
VL: B1 VL with A7S, F9L, T17Q, L59R, R79K, A105Q, L111I
notes: also called Antibody 50
B21: humanized anti-CSP-1 antibody, Antibody Number 8 (Table 1) (antibody, human IgG1, V domains shown)
VH: QIQLVQSGPEVKKPGASVKISCKASGYTFTDYSMHWVRQAPGQGLEWMGWINTETGEPTYAQKFQGRFTFTLDTSTSTAYLEISSLRSEDTAVYFCAPGGFAYWGQGTLVTVSS
VL: B11 VL with S7A, P8A, L9P, L11V, P18S, A19V, K44R, D75A, K79R
notes: also called Antibody 8

Tests used:
[1] = target: T1, Reb-His (Reb, a sub-fragment of Sec8, …); experiment: ELISA on REB-HIS, absorbance 650 nm; no unit stands beside the number, the concentration axis is in nM
[2] = target: T1, Reb-His (Reb, a sub-fragment of Sec8, …); experiment: ELISA on REB-HIS, absorbance 650 nm against concentration in nM on a log axis
[3] = target: T2, Sec8-His (section 8 (Sec8), an …); experiment: ELISA on Sec8-His (target per paragraph 36), absorbance 650 nm; no unit stands beside the number, the concentration axis is in nM; number as printed beside the name, but it fits the circle curve better than the square curve
[4] = target: T1, Reb-His (Reb, a sub-fragment of Sec8, …); experiment: ELISA on REB-HIS, absorbance 650 nm; no unit stands beside the number, the concentration axis is in nM
[5] = target: T2, Sec8-His (section 8 (Sec8), an …); experiment: ELISA on Sec8-His (target per paragraph 36), absorbance 650 nm; curve assigned by the marker in the legend
[6] = target: T2, Sec8-His (section 8 (Sec8), an …); experiment: ELISA on Sec8-His (target per paragraph 36), absorbance 650 nm; no unit stands beside the number, the concentration axis is in nM; number as printed beside the name, but it fits the square curve better than the circle curve
[7] = target: T2, Sec8-His (section 8 (Sec8), an …); experiment: BLI (Octet), single shot: antibody on anti-human IgG tips, 24 nM Sec8-His
Procedure: After humanization, the antibodies were tested for their capability to bind to an antigenic region of CSP-1 called section 8 (Sec8). Antigen binding was assessed by single-shot Octet analysis. Antibodies were loaded onto anti-human IgG tips, and the loaded tips were dipped into wells containing the Sec8-His antigen. Scouting experiments were used to determine ideal conditions for loading (10 minute incubation in 1 μg/mL IgG) and antigen binding (5 minute incubation in 24 nM Sec8-His, followed by a 5 minute dissociation step in buffer). Two negative controls were included with each experiment. First, a tip was loaded with irrelevant IgG dipped into 24 nM Sec8-His to control for non-specific interactions between the tip and the antigen. Next, tips loaded with humanized 1D7 variants were dipped into 24 nM GST-His to control for off-target binding of the antibody (a significant risk if a given variant is destabilized and/or exposes significant hydrophobic surface). The data from the irrelevant IgG control were subtracted from the data obtained with the […]-loaded tips. The mean and standard deviation of the signal change values for the GST-His control wells were used to calculate a threshold for positive binding (mean+3 standard deviations of the GST-His signal). Variants that were below this threshold are considered to have no specific binding to Sec8.

Row | Binder | binding result [7] | other results
1 | B1 | – | EC50 [1]: 0.365 nM; EC50 (read off the curve) [2]: ~0.4 nM
2 | B2 | – | Kd [3]: 0.583 nM; EC50 [4]: 0.531 nM; EC50 (read off the curve) [5]: ~0.1 nM
3 | B3 | – | EC50 (read off the curve) [5]: ~0.6 nM; Kd [6]: 0.14 nM
4 | B4 | binds | –
5 | B5 | binds | –
6 | B6 | binds | –
7 | B7 | binds | –
8 | B8 | binds | –
9 | B9 | binds | –
10 | B10 | binds | –
11 | B11 | binds | –
12 | B12 | binds | –
13 | B13 | binds | –
14 | B14 | binds | –
15 | B15 | binds | –
16 | B16 | binds | –
17 | B17 | binds | –
18 | B18 | binds | –
19 | B19 | binds | –
20 | B20 | binds | –
21 | B21 | binds | –
